According to the supplement of paper PMC9170038:

System: MS2 coat protein
Assay: apparent KD of MS2 coat protein; designed switch direction (-1 OFF switch, 1 ON switch): -1; higher = weaker reporter binding
In short: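 RNA switches sharing common flanks were transcribed by stalled E. coli RNA polymerase on Illumina chips. A doubling series of SNAP-549-labelled MS2 coat protein, from 0.7 or 1.5 nM to 3 µM, was applied in Tris-HCl pH 7.5 buffer with KCl, MgCl2, BSA, DTT, tRNA and Tween-20. Each step lasted 0.8–1.5 h at the bottom of the series and 10–20 min at the top. Normalised cluster fluorescence was curve-fitted, giving apparent KD as the per-design median over clusters.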

[1] = input ligand: microRNA oligo, concentration not stated
[2] = Eterna round: R95, input ligand: FMN 200 uM
[3] = Eterna round: R95, input ligand: microRNA oligo, concentration not stated
[4] = Eterna round: R95, input ligand: none

Sequence	apparent KD of MS2 coat protein (input ligand: FMN 200 uM)	apparent KD of MS2 coat protein [1]	apparent KD of MS2 coat protein (input ligand: none)	apparent KD of MS2 coat protein [2]	apparent KD of MS2 coat protein [3]	apparent KD of MS2 coat protein [4]
AAGAAACAUGAGGAUCACCCAUGUGAGGAUAUGAAAAAGAAAAGAAAAGAAAGAAGAAUCAGAAGGCACAAAGC [salish99-ex1_r3_090] (Eterna round: R96, puzzle: Exclusion 1)	24 nM	25.3 nM	31.2 nM			
AAGAAACAUGAGGAUCACCCAUGUGAGGAUAUGAAAAAGAAAAGAAAAGAAAGAAGAAUCAGAAGGCACAAAGC [salish99-ex1_r3_090] (puzzle: Exclusion 1)				22.5 nM	28.6 nM	32.1 nM
AAGAAACAUGAGGAUCACCCAUGUGAGGAUAUGAAAAAUAAAAGAAAAGAAAUAAUAAUCAGAAGGCACAAAGG [Mat - Mod of Hog D9] (puzzle: Exclusion 1)				43 nM	26.6 nM	28.9 nM
AAGAAACAUGAGGAUCACCCAUGUGAGGAUAUGAAAAAUAAAAUAAAAUAAAUAAUAAUCAGAAGGCACAAAGG [Mat - Mod of Hog D7] (puzzle: Exclusion 1)				37.3 nM	34.1 nM	42 nM
AAGAAACAUGAGGAUCACCCAUGUGAGGAUAUGACGAAGAAAAGAAAAGAAAGAAGACUCAGAAGGCACAAAGG [salish99-ex1_r3_076] (puzzle: Exclusion 1)				48 nM	26.7 nM	43.4 nM
AAGAAACAUGAGGAUCACCCAUGUGAGGAUAUGAUCAAGAAAAGAAAAGAAAGAAGACUCAGAAGGCACAAAGG [salish99-ex1_r3_071] (puzzle: Exclusion 1)				162 nM	210 nM	548 nM
AAGAAACAUGAGGAUCACCCAUGUGAGGAUAUGAUCAAGAAAAGAAAAGAAAGAAGAUUCAGAAGGCACAAAGG [salish99-ex1_r3_056] (puzzle: Exclusion 1)				124 nM	160 nM	362 nM
AAGACAAUUCUCUAGUGCAACAUGAGGAUCACCCAUGUCAUAGAAGCUUUUUGCUCGUGUUAAGUGACUCAAGAGAG [Eternabot (Original) Solution 41] (Eterna round: R97, puzzle: Sensor, turn-off variant 1)	69.6 nM		64.2 nM			
AAGACUAGAGGAUAUACAUGAGGAUCACCCAUGUAACUGUCAGGUGACUGACGGAAAUGUAGAAGGCUAGUCAA [Mat - Exclusion 3 - JL mod - D81] (Eterna round: R96, puzzle: Exclusion 3)	54.2 nM	13.6 nM	16.8 nM			
AAGAGGAAUAUAGGAUAUGAGGCUGAGACGGCGUCAGAAGGGUAUCCAGAGUUACAUGAGGAUCACCCAUGUGGUGAUUUCUAA [Exclusion NG 1 V2 1] (Eterna round: R96, puzzle: Exclusion NG 1)	9.2 nM	5.74 nM	81.2 nM			
AAGAGGCGGACAGGAUAUGGGAAAUUGUAAAGACCAGAAGGGUCGGCGAAAAUACAUGAGGAUCACCCAUGUGACUCAUGACCA [AK ExNG1-7.1] (Eterna round: R96, puzzle: Exclusion NG 1)	913 nM	311 nM	290 nM			
AAGAUGAGACAGGAUAUCCACAAAAUCUUGUCAGGAGAAGGGUCUACAUGAGGAUCACCCAUGUGAUUCUUGAA [Inriinvele] (puzzle: Exclusion 6)				19.1 nM	14.6 nM	18.1 nM
AAGAUGUCAGGAUAUUAGUAGUAAAUGAAUAAAAUUAUUACUGAGAAGGGACAUGAGGAUCACCCAUGUGCCUU [Mat - Exclusion 4 - Eli Mod - D10] (Eterna round: R97, puzzle: Exclusion 4)	17.5 nM		16.6 nM			
AAGAUUCUCAUGAGCUGGAACAUGAGGAUCACCCAUGUGUGUUGCUUUUUGCUCAAGGAAUCCAUUUCGAUCUUAUA [Eternabot (L1) Solution 43] (Eterna round: R97, puzzle: Sensor, turn-off variant 1)	62.9 nM		71.8 nM			
AAGCAUUGCCAAAGGUAGUGCUUAACAUGAGGAUCACCCAUGUAGGAUAUGGUAGGCAAAGCUUACCAGAAGGACAUGAUAAUU [Mat - Exclusion NG 3 - Mod of JL - D14] (Eterna round: R96, puzzle: Exclusion NG 3)	430 nM	61.5 nM	70.8 nM			
AAGCCUCAGGUUAGGAUAUACGCCUGGCCGAAGGAGUAGAAGGGACAUGAGGAUCACCCAUGUGGGUUCAAAAG [Atanvege] (puzzle: Brourd's mod of Exclusion 4)				52.5 nM	43 nM	44.9 nM
AAGCGGUGAGGAUAUACAUGAGGAUCACCCAUGUGUAUGCAGAGGGCGCGGUGUUGGUGUAGAAGGCACUGGGA [EX3 B.10] (Eterna round: R97, puzzle: Exclusion 3)	23 nM		19.4 nM			

Sequence	apparent KD of MS2 coat protein (input ligand: FMN 200 uM)	apparent KD of MS2 coat protein [1]	apparent KD of MS2 coat protein (input ligand: none)	apparent KD of MS2 coat protein [2]	apparent KD of MS2 coat protein [3]	apparent KD of MS2 coat protein [4]
AAGGAUAGAGGAUAUACAUAGAUACAGAUUCAUGUGGUCCUACAUGAGGAUCACCCAUGUAGAAGGCUAUCCUA [Fiskers Ex 2 - 14] (puzzle: Exclusion 2)					169 nM	
AAGGCGCGCGUAGGAUAUCACCGCAAAAGUCGAUGAGAAGGGCGAGUGCAUGGUGUCCUAACUUGAGGAUCACCCAAGUAAAGA [Mutated MS2 EX1.22] (Eterna round: R96, puzzle: Exclusion NG 1)	67.9 nM	41.5 nM	56.5 nM			
AAGGGUACUUUCAGAACGACAUGAGGAUCACCCAUGUAGACUGAGGAUAUCUACUACUAAGGACGGGAGAAGGCAGUGUAAUGU [Ex NG3 #73] (Eterna round: R96, puzzle: Exclusion NG 3)	13.8 nM	10 nM	15.2 nM			
AAGGGUACUUUCAGAACGACAUGAGGAUCACCCAUGUAGACUGAGGAUAUCUACUUCUAAGGACGGGAGAAGGCAGUGUAAUGU [Ex NG3 #72] (Eterna round: R96, puzzle: Exclusion NG 3)	11.4 nM	10.7 nM	13.5 nM			
AAGGGUACUUUCGGAACGACAUGAGGAUCACCCAUGUAGACUGAGGAUAUCUGCUACUAAGGACGGGAGAAGGCAGUGUAAUGU [Ex NG3 #75] (Eterna round: R96, puzzle: Exclusion NG 3)	18.5 nM	12.8 nM	18.7 nM			
AAGUAACAUGAGGAUCACCCAUGUUAGGAUAUCUCGGCCGCGGCAUCGCCGCGAAACCAGAGAAGGAGCGGGUG [Erargeisar] (Eterna round: R97, puzzle: Exclusion 1)	206 nM		160 nM			
AAGUACCGUCACGAUAGUGAUGGUACAACAAGUAUGUGAACAUGAGGAUCACCCAUGUCCUCUUUUGCUCGUCUUAU [Sensor 3 - 89] (puzzle: Sensor v3, turn-off variant 2)				313 nM	22.3 nM	309 nM
AAGUAGUGUGUGAGGAUAUUGGUGGAAUGACACAUUAAGAAGGCACAUGAGGAUCACCCAUGUGGGUUGACACG [Brourd's EX4 #20] (Eterna round: R97, puzzle: Brourd's mod of Exclusion 4)	282 nM		47 nM			
AAGUAUAGAGGAUAUAGUGAGUACUACAUGAGGAUCACCCAUGUUCUUCAAAGCGUAUUUCUAGAAGGCUGUUAAA [EX-5 Malc#18] (puzzle: Exclusion 5)				123 nM	48.7 nM	53.1 nM
AAGUCAACAUGAGGAUCACCCAUGUCCAAGUUGAUGUCCUGUGAGGAUAUGUGUAAACGGCCGGCACAGAAGGCACAAGACGCG [Eternabot solution 5] (Eterna round: R96, puzzle: Exclusion NG 3)	32.3 nM	30.4 nM	34.5 nM			
AAGUCAGCAGGAUAUGCGAUGUUGGGCUAGGUAGCGUGACCACAUGAGGAUCACCCAUGUAGAAGGGCUGGCUA [EX2 Malc#36] (Eterna round: R96, puzzle: Exclusion 2)	45.6 nM	21.9 nM	29.7 nM			
AAGUCGAGCGUGAGGAUAUCGUCCGAACGACCGAACGAGAAGGCACAUGAGGAUCACCCAUGUGAUUCAGCUCA [Brourd's EX4 #48] (Eterna round: R97, puzzle: Brourd's mod of Exclusion 4)	16.8 nM		14.2 nM			
AAGUGGAAAACACAAUUGUACAUGAGGAUCACCCAUGUAUGUACGAAAUAUAGACAAGCUGUAUGCUCGACAACACA [Sensor v2 M17] (Eterna round: R96, puzzle: Sensor v2, turn-off variant)	36.3 nM	18.3 nM	37 nM			
AAGUGUGCCUAGGAUAUGUUCGGCCAAGGUCAUACAGAAGGAGGCACAUGAGGAUCACCCAUGUAGUGUCCUAC [Soququis] (puzzle: Exclusion 6)					59.6 nM	
AAUAAAAGCGAGGAUAUCGUAUCGGAAACGAUACGAGAAGGCGUAACAUGAGGAUCACCCAUGUGUCCUCAAUA [Mat - Exclusion 6 - Eli Mod - D8] (Eterna round: R97, puzzle: Exclusion 6)	1260 nM		130 nM			
AAUAACAAGCCGAUCCUCCACAUGAGGAUCACCCAUGUGUUCGUCUUGUAAAGUACUAUCACGAAAGUGAUAGUACA (Eterna round: R97, puzzle: Sensor, turn-off variant 1)	23 nM		30.5 nM			
